Data as given in patent US20090111753A1, “Nogo-A Polypeptide Fragments, Variant Nogo Receptor-1 Polypeptides, and Uses Thereof” (Yale University, priority 2004, published 2009).

B1: B4C: fusion protein of GST and B4C fragment (carboxyl terminal 75 aa) of Amino-Nogo (protein)
chain: LLPPDVSALATQAEIESIVKPKVLVKEAEKKLPSDTEKEDRSPSAIFSAELSKTSVVDLLYWRDIKKTG
modifications: left off: large carriers
notes: fusion protein of GST and B4C fragment (carboxyl terminal 75 aa) of Amino-Nogo
B2: a.a. 950-1018 (AmNg B4C): AP fusion protein of Amino-Nogo fragment B4C, aa 950-1018 (protein)
chain: B1 chain
modifications: left off: large carriers

What was measured:
[1] = test system: E13 chick DRG neurons; test: cDRG neurite outgrowth assay; format: cell-based; conditions: substrate coated with GST fusion protein
Method: FIG. 2D. Differential effects of Amino-Nogo fragments on neurite outgrowth. Dissociated neurons from E13 chick DRGs were plated on 96 well dishes coated with lpmol protein per well and stained for neurofilament localization.
FIG. 2E. Neurite length per neuron were measured and plotted as percentage of PBS control with increasing concentration of dried protein for experiment described in […].
FIG. 6C. B24/32 peptide inhibits neurite outgrowth. Dissociated neurons from E13 chick DRG were plated onto 96 well dishes coated with 500 pmol of dried peptides as indicated and stained for neurofilament localization.
FIG. 6D. Neurite length per neuron was measured and plotted as percentage of PBS control for experiments as in (C).
(§1) It has been recognized that the Amino-Nogo-A protein inhibits non-neuronal cell spreading and axonal outgrowth when the protein is substrate bound (Chen, M. S., et al., Nature 403:434-439 (2000); Fournier, A. E., et al., Nature 409:341-346 (2001)). […] The later domain has been termed Δ20. To determine whether the NgR-interacting aa of Amino-Nogo-A described in Example 1 regulate cell spreading and axonal outgrowth, various fragments were expressed as GST fusion proteins and purified from E. coli. To generate GST fusion proteins, amino Nogo fragments were cloned in pGEX2T (Amersham Pharmacia). Native and soluble GST fusion proteins were expressed and purified as described (GrandPre, T., et al., Nature 403:439-444 (2000)). COS-7 binding assays were done as described (Fournier, A. E., et al., Nature 409:341-346 (2001)). Bound AP to COS-7 cells was measured using NIH image software. Fibroblast spreading and cDRG outgrowth assay were done as described (Fournier, A. E., et al., Nature 409:341-346 (2001)) with some modifications. Briefly, 50 μl of purified GST fusion protein or peptides diluted in PBS was pipetted into polylysine precoated 96 well plates (Becton Dickson Biocoat plates) and dried overnight at room temperature. For fibroblast spreading assay, subconfluent COS-7 cells were then plated for 1 hour in serum containing medium before fixation and staining with rho damine-phalloidin.
The same GST-Amino-Nogo proteins were tested for their ability to reduce neurite outgrowth from chick E13 DRG neurons. For cDRG outgrowth assay, dissociated E13 cDRG neurons were plated for 6 hours before fixation. […] Cell area, number of attached cells and neurite length were measured using the Imageexpress machine and software (Axon Instrument).
We reasoned that fusing the 24 aa segment of Amino-Nogo-A to NEP32 antagonist peptide might create a high affinity antagonist with a potency similar to the binding of AP-B4C-66 to NgR. […] Cell area, number of attached cells and neurite length were measured using the linageexpress machine and software (Axon Instrument).

[2] = test system: COS-7 cells; test: Fibroblast spreading assay on dried GST fusion protein; format: cell-based; conditions: GST fusion protein presented as dried substrate
Method: FIG. 2A. Effects of Amino-Nogo fragments on fibroblast spreading and neurite outgrowth. Different effects of Amino-Nogo fragments on fibroblast spreading. COS-7 cells were allowed to attach and spread on slides with spots coated with 50 ng of dried GST fusion protein as indicated and stained for F-actin. GST-A: fusion protein of GST and A fragment (FIG. 1) of Amino-Nogo. GST-A, GST-B, GST-Δ20, GST-B4 and GST-B4C: fusion protein of GST and A, B, Δ20, B4 or B4C fragment (FIG. 1) of Amino-Nogo, respectively.
FIG. 2B. COS-7 cell area for experiments as in (A) was measured and plotted.
FIG. 2C. COS-7 cells were allowed to attach and spread on 96 well dishes coated with dried GST fusion proteins as indicated. Number of attached cells were counted and plotted as a function of the amount of various proteins dried per well in a 96 well dish.
as §1, with “For fibroblast spreading assay, subconfluent COS-7 cells were then plated for 1 hour in serum containing medium before fixation and staining with rho damine-phalloidin.” left out

[3] = target: T1, NgR (Homo sapiens, UniProt Q9BZR6); test: AP fusion protein binding to NgR expressing COS-7 cells; conditions: AP fused Amino-Nogo fragments in conditioned media on NgR expressing COS-7 cells; 'No binding at' cells continue on the next line: AmNg A 150 nM; a.a. 1000-1018, a.a. 1005-1018, Amino of NgC 25 nM; a.a. 950-1004 50 nM; Amino of NgB 100 nM
T1 construct: expressed in transfected cells; host or cells: COS-7
T1 sequence (Q9BZR6 27-447): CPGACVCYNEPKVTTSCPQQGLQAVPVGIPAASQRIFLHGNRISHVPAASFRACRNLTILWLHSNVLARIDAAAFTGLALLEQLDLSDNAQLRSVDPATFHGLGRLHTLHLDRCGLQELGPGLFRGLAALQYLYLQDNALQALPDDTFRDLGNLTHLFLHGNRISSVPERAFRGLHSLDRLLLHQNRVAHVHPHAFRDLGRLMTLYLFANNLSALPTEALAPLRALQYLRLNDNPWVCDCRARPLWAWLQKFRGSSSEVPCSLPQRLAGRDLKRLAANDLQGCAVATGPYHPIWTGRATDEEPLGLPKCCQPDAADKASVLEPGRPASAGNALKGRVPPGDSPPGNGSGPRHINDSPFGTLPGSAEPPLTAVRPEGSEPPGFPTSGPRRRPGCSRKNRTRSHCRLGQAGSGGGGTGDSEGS
Source text: Several alkaline phosphatase (AP) fusion proteins containing various Nogo-A segments derived from regions between the amino terminus and the first hydrophobic segment were examined to identify the mechanism of Amino-Nogo-A action. To generate additional AP fusion proteins, human amino Nogo fragments were amplified and ligated to the pcAP6 vector digested with restriction enzymes EcoRI and XhoI as described (Fournier, A. E., et al., Nature 409:341-346 (2001)). Plasmids were then transfected into HEK293T cells and conditioned media were collected after 7 days. None of these fragments bind with high affinity to non-transfected COS-7 cells. […] This binding is saturable with a Kd indistinguishable from that for AP-Nogo-66 association with NgR (Table I). To better define the region responsible for Amino-Nogo interaction with NgR, a range of truncation mutants of Amino-Nogo were examined as AP fusion proteins. […] In fact, the NgR-interacting segment of Amino-Nogo is fully accounted for in the extreme carboxyl 24 amino acids (aa 995-1018, Amino-Nogo-A-24) (Table I and FIG. 1D). […] We named this domain (aa 995-1013) as Amino-Nogo-A-19.
Binding Kds for AP fused Amino-Nogo fragments were measured by applying conditioned media containing AP fusion protein to NgR expressing COS-7 cells. Bound AP was stained and measured.
as §1

[4] = test system: NgR mutants; test: AP fusion protein binding to COS-7 cells expressing NgR deletion mutants; conditions: COS-7 cells expressing NgR mutants; FIG. 3A
Source text: FIG. 3A. Binding of Amino-Nogo to NgR requires LRR repeats. Binding of AP or AP fused Nogo fragments to COS-7 cells expressing NgR mutants as indicated. AP-B and AP-B4: AP fusion protein of B or B4 fragment of Amino-Nogo. Surface expression of NgR mutants was detected using anti-Myc antibodies.
Similarly, the cysteine rich LRR-NT and LRR-CT capping domains are essential for Amino-Nogo-B4C binding. […] NgR is part of gene family that includes NgR2 and NgR3. […] By these measures, the NgR requirements for Nogo-66 and Amino-Nogo-B4C binding are indistinguishable.

Molecule | neurite outgrowth from chick E13 DRG neurons [1] | COS-7 cell attachment and spreading [2] | Kd [3] | binding to NgR with deletion of the CT domain [4] | binding to NgR with deletions of any two LRRs [4] | requirement of LRR-NT and LRR-CT capping domains of NgR for binding [4]
B1 | not inhibitory for axonal growth | do not alter COS-7 morphology | – | – | – | –
B2 | – | – | 3.51 ± 3.36 nM | did not alter | eliminated binding | essential
